Conditions in all cases: 20 nM; 72 h
The test system of data set [1] is MCF10A. Description: 5+ nucleoli phenotype percent effect (relative to siNT 0% and siKIF11 100%); higher = more cells with five or more nucleoli. On the procedure: (§1)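 After 72 h, cells were fixed and stained with Hoechst and anti-fibrillarin, and nucleoli per nucleus were counted with CellProfiler. Values are plate-adjusted percent effect for the one-nucleolus and 5+ nucleoli phenotypes, normalised to siNT (0%) and to the positive controls siNOL11 or siKIF11 (100%), as the mean of biological triplicates. Percent viability is the nuclei count relative to siNT.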

Data set [2] deals with MCF10A. Description: percent viability (nuclei count relative to siNT); higher = more viable cells. On the procedure: as §1
The subject of data set [3] is MCF10A. Description: one-nucleolus phenotype percent effect (relative to siNT 0% and siNOL11 100%); higher = more cells with one nucleolus (ribosome biogenesis inhibition). On the procedure: as §1

On to AAUCGGACCCAUUUAAACCGGAG [hsa-miR-5188], for which the “5+ nucleoli phenotype percent effect” value with MCF10A [1] amounted to 10.2%. Moreover, the percent viability in the data set on MCF10A [2] was 90.7%. In addition, the “one-nucleolus phenotype percent effect” value in the data set on MCF10A [3] was -9.59%.
With “UGGGGGUGGUCUCUAGCCAAGG [hsa-miR-6842-5p]”, the “5+ nucleoli phenotype percent effect” value with MCF10A [1] is -11.8%. Also, the percent viability in the data set on MCF10A [2] worked out at 9.46%. Besides, in the data set with MCF10A [3], the “one-nucleolus phenotype percent effect” value is -7.28%.
For UGGCUUUUAACUUUGAUGGC [hsa-miR-3119], in that order: -21.8%, 17.4% and 56.7%.
For “ACCGAAGACUGUGCGCUAAUCU [hsa-miR-4671-5p]”, in that order: 14.8%, 99.3% and -20.7%.
On to “AAAGUGCUUCCUUUUAGAGGGU [hsa-miR-520c-3p]”, for which the “5+ nucleoli phenotype percent effect” value with MCF10A [1] stood at 44.6%. The percent viability in the data set on MCF10A [2] was determined as 74.6%. Moreover, the “one-nucleolus phenotype percent effect” value in the data set with MCF10A [3] is -14.7%.
The like results for UGAGGUAGUAGGUUGUAUGGUU [hsa-let-7c] were, in that order, 56.3%, 25.9% and -17.3%.
The like results for “UGCCUCUUUUCCACGGCCUCAG [hsa-miR-6781-3p]” were, in that order, 2.23%, 38.9% and -1.18%.
As for “AGUGCCUGAGGGAGUAAGAGCCC [hsa-miR-550a-5p]”, the “5+ nucleoli phenotype percent effect” value in the data set with MCF10A [1] was 12.6%. Besides, the percent viability in the data set with MCF10A [2] was found to be 47.1%. Further, the “one-nucleolus phenotype percent effect” value in the data set on MCF10A [3] came out at 7.21%.
Take “GUCCCUCUCCAAAUGUGUCUUG [hsa-miR-642a-5p]”: the “5+ nucleoli phenotype percent effect” value in the data set on MCF10A [1] was 55.6%. For the same sequence, the percent viability in the data set on MCF10A [2] amounted to 120%. In addition, the “one-nucleolus phenotype percent effect” value in the data set on MCF10A [3] is -27.9%.
“GUAUACACCUGAUAUGUGUAUG [hsa-miR-4789-5p]”: the “5+ nucleoli phenotype percent effect” value with MCF10A [1] is 17.3%. Moreover, in the data set on MCF10A [2], the percent viability was 67.5%. The “one-nucleolus phenotype percent effect” value in the data set with MCF10A [3] is -15.8%.
Consider “GCGGGGGUGGCGGCGGCAUCCC [hsa-miR-4787-5p]”, for which the “5+ nucleoli phenotype percent effect” value in the data set on MCF10A [1] amounted to 25.2%. Moreover, the percent viability with MCF10A [2] came out at 86.7%. The “one-nucleolus phenotype percent effect” value with MCF10A [3] was -21.5%.
For UAGCCCCCAGGCUUCACUUGGCG [hsa-miR-3943], in that order: -18.2%, 19.1% and 8.41%.
On to UUAGUGAAGGCUAUUUUAAUU [hsa-miR-3606-5p], for which the “5+ nucleoli phenotype percent effect” value in the data set with MCF10A [1] was -9.93%. The percent viability in the data set with MCF10A [2] was 109%. The “one-nucleolus phenotype percent effect” value with MCF10A [3] was determined as 6.89%.
Turning to UAGCAGCACAUCAUGGUUUACA [hsa-miR-15b-5p], the “5+ nucleoli phenotype percent effect” value with MCF10A [1] is -4.86%. In addition, in the data set with MCF10A [2], the percent viability amounted to 26.5%. Also, the “one-nucleolus phenotype percent effect” value in the data set on MCF10A [3] worked out at 26.9%.
The like results for “CUGGGGAGAUCCUCGAGGUUGG [hsa-miR-3150a-3p]” were, in that order, -16.4%, 18.9% and 23.4%.
Take AUCAAGGAUCUUAAACUUUGCC [hsa-miR-561-5p]: in the data set with MCF10A [1], the “5+ nucleoli phenotype percent effect” value was -9.66%. The percent viability in the data set with MCF10A [2] amounted to 38.8%. For the same sequence, in the data set on MCF10A [3], the “one-nucleolus phenotype percent effect” value was 5.64%.
The like results for “UAUGGGGCUUCUGUAGAGAUUUC [hsa-miR-3675-5p]” were, in that order, -9.76%, 37.2% and 22.6%.
For CUCUGAUCGCCCUCUCAGCUC [hsa-miR-3192-3p], in that order: -48.8%, 34.9% and 57.6%.
The like results for GACAUUCAGACUACCUG [hsa-miR-4262] were, in that order, -5.77%, 86.4% and 6.49%.
Regarding UGUGGACAGUGAGGUAGAGGGAGU [hsa-miR-3138], the “5+ nucleoli phenotype percent effect” value in the data set with MCF10A [1] stood at 2.7%. In addition, the percent viability in the data set on MCF10A [2] turned out to be 47.9%. For the same sequence, the “one-nucleolus phenotype percent effect” value in the data set with MCF10A [3] is -2.72%.
The like results for UUUGUAUGGAUAUGUGUGUGUAU [hsa-miR-3149] were, in that order, -7.06%, 37.6% and 2.3%.
For AAAAUUUCUUUCACUACUUAG [hsa-miR-3606-3p], in that order: 41.5%, 54% and -25.7%.
On to “UCCCAGGGUCUGGUCAGAGUUG [hsa-miR-6764-5p]”, for which the “5+ nucleoli phenotype percent effect” value in the data set on MCF10A [1] is -18.4%. Further, the percent viability in the data set with MCF10A [2] was 25.8%. For the same sequence, the “one-nucleolus phenotype percent effect” value with MCF10A [3] came out at 29.5%.
For AAUGGAUUUUUGGAGCAGG [hsa-miR-1246], in that order: -4.08%, 33% and 3.6%.
Regarding “GCUAUUUCACGACACCAGGGUU [hsa-miR-138-2-3p]”, the “5+ nucleoli phenotype percent effect” value in the data set with MCF10A [1] is -22.8%. Moreover, in the data set on MCF10A [2], the percent viability worked out at 43.1%. Also, the “one-nucleolus phenotype percent effect” value in the data set on MCF10A [3] came to 4.26%.
The like results for UCUGGCUGUGCUGUAAUGCAG [hsa-miR-6504-5p] were, in that order, -5.01%, 54.2% and 6.53%.
For “UGGGCAGGGGCUUAUUGUAGGAG [hsa-miR-6721-5p]”, in that order: 22%, 21.3% and 19.5%.
The like results for “CUCACUGAUCAAUGAAUGCA [hsa-miR-181b-2-3p]” were, in that order, 9.62%, 144% and -19.1%.
In the case of CUGGGAGGUGUGAUAUUGUGGU [hsa-miR-3689c], the “5+ nucleoli phenotype percent effect” value in the data set with MCF10A [1] is -32.9%. Further, in the data set on MCF10A [2], the percent viability was 9.66%. Also, in the data set with MCF10A [3], the “one-nucleolus phenotype percent effect” value is 44%.
For the sequence UCUCUGAGUACCAUAUGCCUUGU [hsa-miR-3921], the “5+ nucleoli phenotype percent effect” value in the data set on MCF10A [1] was -6.05%. In addition, in the data set with MCF10A [2], the percent viability came out at 59.6%. Also, the “one-nucleolus phenotype percent effect” value in the data set with MCF10A [3] was -20.1%.
As to UCUCUUCAUCUACCCCCCAG [hsa-miR-6515-3p], the “5+ nucleoli phenotype percent effect” value in the data set with MCF10A [1] was -2.57%. Also, in the data set on MCF10A [2], the percent viability is 85.2%. Also, the “one-nucleolus phenotype percent effect” value with MCF10A [3] came out at 4.68%.
Regarding CCCGGACAGGCGUUCGUGCGACGU [hsa-miR-3687], the “5+ nucleoli phenotype percent effect” value in the data set on MCF10A [1] is 26.3%. Further, in the data set on MCF10A [2], the percent viability was determined as 86.1%. The “one-nucleolus phenotype percent effect” value with MCF10A [3] was -20.6%.
As to “UGUGGGUUCUGGGUUGGGGUGA [hsa-miR-6793-5p]”, the “5+ nucleoli phenotype percent effect” value with MCF10A [1] was -24.1%. The percent viability in the data set with MCF10A [2] worked out at 14.3%. In addition, the “one-nucleolus phenotype percent effect” value in the data set on MCF10A [3] was 30.2%.
The like results for “UUCUGGAUAUGAAGACAAUCAA [hsa-miR-4782-5p]” were, in that order, -38.6%, 16.3% and 44.9%.
For AAUAAUAUCACAGUAGGUGUAC [hsa-miR-5692c], in that order: 46%, 133% and -21.3%.
The like results for “UAAAGACUGUAGAGGCAACUGGU [hsa-miR-7161-5p]” were, in that order, 33.8%, 79.8% and -23.4%.
As to UUGCCUGCCCUCUUCCUCCAG [hsa-miR-6894-3p], the “5+ nucleoli phenotype percent effect” value with MCF10A [1] is -20.1%. The percent viability with MCF10A [2] stood at 24.2%. In addition, the “one-nucleolus phenotype percent effect” value in the data set on MCF10A [3] worked out at 22.3%.
The like results for “CGGGUAGAGAGGGCAGUGGGAGG [hsa-miR-197-5p]” were, in that order, 48.2%, 44.8% and -25.5%.
For GCAGAGUGCAAACAAUUUUGAC [hsa-miR-759], in that order: 51.1%, 90.2% and -27.2%.
The like results for AUAGGCACCAAAAAGCAACAA [hsa-miR-4423-3p] were, in that order, -11.3%, 12.9% and 0.708%.
Take CUGCAAAGGGAAGCCCUUUC [hsa-miR-518a-5p]: the “5+ nucleoli phenotype percent effect” value in the data set with MCF10A [1] was -45.8%. Further, the percent viability in the data set with MCF10A [2] turned out to be 32.4%. For the same sequence, the “one-nucleolus phenotype percent effect” value with MCF10A [3] was 60.3%.
The like results for “AGGGGGGCACUGCGCAAGCAAAGCC [hsa-miR-6885-5p]” were, in that order, -29.8%, 42.5% and 16.6%.
For ACAGGAGUGGGGGUGGGACAU [hsa-miR-4433-3p], in that order: -0.614%, 38.2% and 6.34%.
The like results for “UCUGUAUUCUCCUUUGCCUGCAG [hsa-miR-4742-3p]” were, in that order, 3.24%, 24.4% and 6.5%.
In the case of UGAGGGAGUGGAUUGUAUG [hsa-miR-6130], the “5+ nucleoli phenotype percent effect” value in the data set with MCF10A [1] is -15.2%. The percent viability in the data set with MCF10A [2] was 16.7%. In the data set on MCF10A [3], the “one-nucleolus phenotype percent effect” value is -1.2%.
The like results for “CUCUAGAGGGAAGCACUUUCUC [hsa-miR-518f-5p]” were, in that order, 3.35%, 33.5% and 8.67%.
The like results for CAUCUGGGCAACUGACUGAAC [hsa-miR-1298-3p] were, in that order, -17.1%, 7.06% and 57%.

For the origin of these results see the supplement of paper PMC10899765.
